Here are results for 1 molecule from patent EP1105154B1 (Walter Reed Army Institute of Research, dated 2016).

In this assay the target is T1, HLA-DR1 (DR1αβ; DRA and DRB1*0101) on cells (human).
T1 construct: whole, on cells
In words: flow cytometry on human MHC class II expressing cells. A general note: In flow cytometry, cells or beads pass a laser one at a time.

B1: Staphylococcal enterotoxin A (SEA), wild type (ligand)
chain: SEKSEEINEKDLRKKSELQGTALGNLKQIYYYNEKAKTENKESHDQFLQHTILFKGFFTDHSWYNDLLVDFDSKDIVDKYKGKKVDLYGAYYGYQCAGGTPNKTACMYGGVTLHDNNRLTEEKKVPINLWLDGKQNTVPLETVKTNKKNVTVQELDLQARRYLQEKYNLYNSDVFDGKVQRGLIVFHTSTEPSVNYDLFGAQGQYSNTLLRIYRDNKTINSENMHIDIYLYTS
As to B1, the binding result is “binds”.
